{
  "source": "paper PMC7940618",
  "about": "“Specific inhibition of the Survivin–CRM1 interaction by peptide-modified molecular tweezers” (Nature Communications, 2021)",
  "key": {"Survivin120 wildtype": {"biological_target": "T1, Survivin120 wildtype (Homo sapiens, UniProt O15392)", "T1 construct": "the only published NMR structure originated from a truncated Survivin (aa 1-120) with improved solubility; GST with PreScission site (N); made in house; host or cells: Escherichia coli soluBL21", "T1 sequence (O15392 1-120)": "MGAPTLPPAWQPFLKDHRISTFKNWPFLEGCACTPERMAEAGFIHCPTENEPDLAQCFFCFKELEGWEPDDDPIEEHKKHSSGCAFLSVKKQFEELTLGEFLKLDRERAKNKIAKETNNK", "assay": "Fluorescence anisotropy binding of FAM-labeled tweezers to Survivin120 wildtype", "description": "(§1) Fluorescence anisotropy was measured with a Jasco Spectrofluorometer FP-8300 in PBS buffer, pH 7.4, at 25 °C and data were collected with the software Spectra Manager™.\n(§2) For binding studies, FAM-labeled molecular tweezers (200 nM) were titrated with Survivin120 wildtype or K90/103T mutant until a final concentration of 180 µM (wildtype) or 350 µM (K90/103T) was reached. Data were normalized to the measured anisotropy A0 in the absence of protein. Using a single-site binding model, the fluorescence anisotropy data were fitted to the equation:3 y=A⋅L+x+KD−L+x+KD^2−4⋅x⋅L/2⋅L where A is the anisotropy at saturation, L is the concentration of the fluorescent ligand, x is the concentration of protein titrated, and KD is the dissociation constant."}, "Survivin120 K90/103T": {"biological_target": "T2, Survivin120 K90/103T (Homo sapiens, UniProt O15392, K103T/K90T)", "T2 construct": "the only published NMR structure originated from a truncated Survivin (aa 1-120) with improved solubility; GST with PreScission site (N); made in house; host or cells: Escherichia coli soluBL21", "T2 sequence (O15392 1-120 K90T/K103T)": "as the sequence (O15392 1-120) above, with K90T, K103T counted along it", "assay": "Fluorescence anisotropy binding of FAM-labeled tweezers to Survivin120 K90/103T", "description": "as §1, §2"}, "[1]": {"biological_target": "TW-ELTL (asymmetrical molecular tweezer linked to the short peptide ELTL) (human)", "assay": "ITC; tweezer conjugate (100 µM) in the cell, Survivin120 (1.2 mM WT or 2.5 mM K90/103T) in the syringe; PBS pH 7.4, 25 °C; one set of sites model"}, "[2]": {"biological_target": "TW-LFEEGLLT (scrambled peptide-modified tweezer)", "assay": "ITC; tweezer conjugate (100 µM) in the cell, Survivin120 (1.2 mM WT or 2.5 mM K90/103T) in the syringe; PBS pH 7.4, 25 °C; one set of sites model"}, "[3]": {"biological_target": "TW-ELTLGEFL (asymmetrical molecular tweezer linked to the elongated peptide ELTLGEFL) (human)", "assay": "ITC; tweezer conjugate (100 µM) in the cell, Survivin120 (1.2 mM WT or 2.5 mM K90/103T) in the syringe; PBS pH 7.4, 25 °C; one set of sites model"}, "TW-ELTL-FAM (human)": {"biological_target": "TW-ELTL-FAM (human)", "assay": "fluorescence polarisation; fluorescence anisotropy; 200 nM FAM-labeled tweezer titrated with Survivin120 (to 180 µM) or K90/103T (to 350 µM); PBS pH 7.4, 25 °C; single-site model"}, "TW-ELTLGEFL-FAM (human)": {"biological_target": "TW-ELTLGEFL-FAM (human)", "assay": "fluorescence polarisation; fluorescence anisotropy; 200 nM FAM-labeled tweezer titrated with Survivin120 (to 180 µM) or K90/103T (to 350 µM); PBS pH 7.4, 25 °C; single-site model"}, "[4]": {"biological_target": "Atto488-labeled Survivin120 (human) (UniProt O15392)", "sequence (O15392 1-120)": "as the sequence (O15392 1-120) above", "assay": "fluorescence polarisation; fluorescence anisotropy competition; Atto488-Survivin120 preincubated with CRM1_1-1062VLV430AAA at 1:5, titrated with tweezers to approx. 180 µM; PBS pH 7.4, 25 °C; n = 1"}, "Survivin142-HA (human)": {"biological_target": "Survivin142-HA (human) (UniProt O15392)", "sequence (O15392 whole entry)": "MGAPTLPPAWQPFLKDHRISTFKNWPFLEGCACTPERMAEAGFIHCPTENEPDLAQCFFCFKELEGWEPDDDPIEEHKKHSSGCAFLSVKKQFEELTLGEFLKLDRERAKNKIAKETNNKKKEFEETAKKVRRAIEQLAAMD", "assay": "pull-down; competition in the pull-down of a5: 293T lysate with Survivin142-HA preincubated 1 h with 10 nM to 200 µM tweezer conjugate before GST-CRM1, RanQ69L and dGTP"}},
  "note": "Peptide text beside a SMILES is read from it. * marks the point of attachment. X1 = O=C(Cn1cc(CCOP(=O)(O)Oc2c3c(c(OP(=O)(O)O)c4c2C2CC4c4cc5c(cc42)C2CC5c4ccccc42)C2CC3c3cc4c(cc32)C2CC4c3ccccc32)nn1)*; 5FAM = O=C1OC2(c3ccc(O)cc3Oc3cc(O)ccc32)c2ccc(C(=O)*)cc21",
  "data": [
    {"compound": "CC(C)C[C@H](NC(=O)[C@H](CCC(=O)O)NC(=O)Cn1cc(CCOP(=O)(O)Oc2c3c(c(OP(=O)(O)O)c4c2[C@H]2C[C@@H]4c4cc5c(cc42)[C@H]2C[C@@H]5c4ccccc42)[C@H]2C[C@@H]3c3cc4c(cc32)[C@H]2C[C@@H]4c3ccccc32)nn1)C(=O)N[C@H](C(=O)N[C@@H](CC(C)C)C(=O)N[C@@H](CCCCNC(=O)c1ccc2c(c1)C(=O)OC21c2ccc(O)cc2Oc2cc(O)ccc21)C(=O)NCC(=O)O)[C@@H](C)O", "note": "[TW-ELTL-FAM]", "values": [
      {"measurement": "Kd", "setting": "Survivin120 wildtype", "result": "26 ± 2", "unit": "µM"},
      {"measurement": "Kd", "setting": "Survivin120 K90/103T", "result": "240 ± 20", "unit": "µM"}
    ]},
    {"compound": "CC(C)C[C@H](NC(=O)[C@H](Cc1ccccc1)NC(=O)[C@H](CCC(=O)O)NC(=O)CNC(=O)[C@H](CC(C)C)NC(=O)[C@@H](NC(=O)[C@H](CC(C)C)NC(=O)[C@H](CCC(=O)O)NC(=O)Cn1cc(CCOP(=O)(O)Oc2c3c(c(OP(=O)(O)O)c4c2C2CC4c4cc5c(cc42)C2CC5c4ccccc42)C2CC3c3cc4c(cc32)C2CC4c3ccccc32)nn1)[C@@H](C)O)C(=O)N[C@@H](CCCCNC(=O)c1ccc2c(c1)C(=O)OC21c2ccc(O)cc2Oc2cc(O)ccc21)C(=O)NCC(=O)O", "note": "[TW-ELTLGEFL-FAM] (X1-ELTLGEFLK(5FAM)G-OH)", "values": [
      {"measurement": "Kd", "setting": "Survivin120 wildtype", "result": "5 ± 0.5", "unit": "µM"},
      {"measurement": "Kd", "setting": "Survivin120 K90/103T", "result": "92 ± 5", "unit": "µM"}
    ]},
    {"compound": "Survivin120 (truncated Survivin, aa 1-120) (from UniProt O15392 1-120) (domain or fragment)", "values": [
      {"measurement": "Kd", "setting": "[1]", "result": 24, "unit": "µM"},
      {"measurement": "stoichiometry N (ligand/protein)", "setting": "[1]", "result": 2},
      {"measurement": "Kd", "setting": "[2]", "result": 68, "unit": "µM"},
      {"measurement": "Kd", "setting": "[3]", "result": 19, "unit": "µM"},
      {"measurement": "stoichiometry N (ligand/protein)", "setting": "[3]", "result": 2},
      {"measurement": "Kd", "setting": "TW-ELTL-FAM (human)", "result": 26, "unit": "µM"},
      {"measurement": "Kd", "setting": "TW-ELTLGEFL-FAM (human)", "result": 5, "unit": "µM"}
    ]},
    {"compound": "TW-ELTLGEFL (asymmetrical molecular tweezer linked to the elongated peptide ELTLGEFL)", "values": [
      {"measurement": "IC50", "setting": "[4]", "result": 12, "unit": "µM"},
      {"measurement": "concentration effective in disrupting the Survivin–CRM1 complex", "setting": "Survivin142-HA (human)", "result": "1 to 10", "unit": "µM"}
    ]}
  ]
}
